Patent US20220002395A1 (FAPON BIOTECH, published 2022)
Where a chain is given by its changes, count along the chain named.

T1: Plasmodium falciparum histidine-rich protein II (HRP-II) (Plasmodium falciparum, UniProt P05227 22-332)
T1 construct: Coating antigen of all ELISAs; also called HRP-II protein; MA-HRPII Ag protein
T1 sequence (looked up): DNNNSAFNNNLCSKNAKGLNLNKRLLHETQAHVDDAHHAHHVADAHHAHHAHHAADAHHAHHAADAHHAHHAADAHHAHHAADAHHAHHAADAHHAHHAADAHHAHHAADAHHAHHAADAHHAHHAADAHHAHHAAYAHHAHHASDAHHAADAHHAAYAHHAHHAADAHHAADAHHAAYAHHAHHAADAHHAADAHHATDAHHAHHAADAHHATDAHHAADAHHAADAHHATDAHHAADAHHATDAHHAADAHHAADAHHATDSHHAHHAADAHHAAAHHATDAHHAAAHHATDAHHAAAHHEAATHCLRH

B1: Mutation 1-3 (antibody, mouse IgG2b, kappa, V domains shown)
VH: EVQLQQSGPEVVKPGASVKISCKASGYTITDYYMNWVKQSHGKGLEWIGDLNPINGGTAYQQKFRDKATLTVDKSSNTAYMELRSLTSEDSALYYCTRGAEDYWGQGTTLTVSS
VL: DVVLTQTPLSLSVTIGQPASISCKSSQSIIYSNGKIYLNWFQQRPGQSPKRLMYQLSKLEPGIPDRFSGSGSETDFTLKISRVEAEDLGVYYCLQGTYSPQTFGGGTKLEIKR
notes: Mutation 1 as framework
B2: Mutation 1-2 (antibody, mouse IgG2b, kappa, V domains shown)
VH: B1 VH with Y27S, I29L, L51V, N55Q, R98K
VL: B1 VL with I29L, I30L, E60D, G96A, S99T
notes: Mutation 1 as framework
B3: Mutation 1-4 (antibody, mouse IgG2b, kappa, V domains shown)
VH: B1 VH with I29L, L51I, R98K
VL: B1 VL with I30L, L56V, E60D, G96A, S99Y
notes: Mutation 1 as framework
B4: Mutation 1-1 (antibody, mouse IgG2b, kappa, V domains shown)
VH: B1 VH with L51I, N55Q, Q61N
VL: B1 VL with N33Q, L56I, S99Y
notes: Mutation 1 as framework
B5: Mutation 1-36 (antibody, mouse IgG2b, kappa, V domains shown)
VH: B1 VH with Y27T, I29L, N55Q, Q61N
VL: B1 VL with I29L, I30L, L56I, E60D
notes: Mutation 1 as framework
B6: Mutation 1-27 (antibody, mouse IgG2b, kappa, V domains shown)
VH: B1 VH with Y27T, I29L, R98K
VL: B1 VL
notes: Mutation 1 as framework
B7: Mutation 1-51 (antibody, mouse IgG2b, kappa, V domains shown)
VH: B1 VH with Y27S, I29L, R98K
VL: B1 VL with I29L, I30L, S99Y
notes: Mutation 1 as framework
B8: Mutation 1-30 (antibody, mouse IgG2b, kappa, V domains shown)
VH: B1 VH with Y27S, I29L, N55Q, Q61N, R98K
VL: B1 VL with L56I, E60D, G96A
notes: Mutation 1 as framework
B9: Mutation 1-42 (antibody, mouse IgG2b, kappa, V domains shown)
VH: B1 VH
VL: B1 VL with I30L, L56I, E60D
notes: Mutation 1 as framework
B10: Mutation 1-34 (antibody, mouse IgG2b, kappa, V domains shown)
VH: B1 VH with Y27T, I29L, L51I
VL: B1 VL with I29L, I30L, L56V, E60D, S99T
notes: Mutation 1 as framework
B11: Mutation 1-38 (antibody, mouse IgG2b, kappa, V domains shown)
VH: B1 VH with Y27T, I29L, L51V, N55Q
VL: B1 VL with I29L, I30L, E60D
notes: Mutation 1 as framework
B12: Mutation 1-44 (antibody, mouse IgG2b, kappa, V domains shown)
VH: B1 VH with L51V
VL: B1 VL with I30L, E60D, G96A
notes: Mutation 1 as framework
B13: Mutation 1-52 (antibody, mouse IgG2b, kappa, V domains shown)
VH: B1 VH with Y27T, I29L, L51I, N55Q
VL: B1 VL with L56V, E60D, G96A, S99Y
notes: Mutation 1 as framework
B14: Mutation 1-9 (antibody, mouse IgG2b, kappa, V domains shown)
VH: B1 VH with I29L, N55Q, Q61N
VL: B1 VL with N33Q
notes: Mutation 1 as framework
B15: Mutation 1-40 (antibody, mouse IgG2b, kappa, V domains shown)
VH: B1 VH with Y27T, I29L, L51I
VL: B1 VL with I30L, E60D, S99T
notes: Mutation 1 as framework
B16: Mutation 1-12 (antibody, mouse IgG2b, kappa, V domains shown)
VH: B1 VH with Q61N
VL: B1 VL with I30L, L56I, E60D
notes: Mutation 1 as framework
B17: Mutation 1-43 (antibody, mouse IgG2b, kappa, V domains shown)
VH: B1 VH with Y27T, I29L, L51I, R98K
VL: B1 VL with I30L, L56I
notes: Mutation 1 as framework
B18: Mutation 1-24 (antibody, mouse IgG2b, kappa, V domains shown)
VH: B1 VH with Y27T, I29L, N55Q, R98K
VL: B1 VL with L56I, E60D, G96A
notes: Mutation 1 as framework

molecular target: T1, Plasmodium falciparum histidine-rich …; assay: indirect ELISA, four antigen coating concentrations;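 note: optical density read across an antibody dilution series at each antigen coating level, curves plotted on log scale, KD derived as reciprocal of the averaged constant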
Description: The OD values corresponding to different antibody concentrations with different coating concentrations are obtained. Under the same coating concentration, the antibody concentrations are used as an abscissa, the 00 values are used as an ordinate, and a logarithmic plot is made. […] An average value thereof is taken and a reciprocal thereof is calculated to get the affinity constant KD.

Binder | Kd [pM]
B1 | 362
B2 | 90.3
B3 | 465
B4 | 301
B5 | 473
B6 | 165
B7 | 179
B8 | 233
B9 | 64.3
B10 | 184
B11 | 88.3
B12 | 105
B13 | 182
B14 | 64.5
B15 | 83
B16 | 126
B17 | 124
B18 | 127
